B1: mAb-EspB-B7 (antibody, V domains shown)
VH: EVQLLESGGGLVQPGGSLRLSCAASGFTFSHYAMNWVRQAPGKGLEWVSAINSNGDSTYYPDTVKDRFTISRDNSKNTLYLQMNSLRAEDTAVYYCARDRRAGYFDYWGQGTLVTVSS
VL: DIVLTQPPSASGTPGQRVTISCSGSRDNIGKNYVSWYQQLPGTAPKLLIYRNNQRPSGVPDRFSGSKSGTSASLAISGLRSEDEADYYCSAWDTSLNAYVFGPGTQLTVL
B2: EspB cyclic peptide #49 (positions 193-207) (peptide)
peptide: CTSAQKASQVAEEAADC
modifications: not checked

What was measured:
[1] = target: EspB cyclic peptide #49 (positions 193-207) (Enteropathogenic Escherichia coli (EPEC)); experiment: ELISA, plate coated with peptide #49, serially diluted mAb, anti-human IgG-HRP
[2] = target: EspB cyclic peptide #50 (positions 197-211) (Enteropathogenic Escherichia coli (EPEC)); experiment: ELISA, plate coated with peptide #50, serially diluted mAb, anti-human IgG-HRP
[3] = target: mAb-EspB-B7

Binder | EC50 (read off the curve) [1] [µg/mL] | EC50 (read off the curve) [2] [µg/mL] | IC50 (read off the curve) [3] [µg/mL]
B1 | 0.5 | 0.5 | –
B2 | – | – | 0.8
